The text below walks through data of the NTF2 design screens of Basanta et al. (2020).

The data set is described as follows: protease stability score; higher = more stable; yeast display proteolysis, trypsin and chymotrypsin.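 Further: relative to predicted unfolded state with 0 unfolded-like and 1 meaning tenfold more protease.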
Turning to “DSDHHRAYEYAEFFIEWHETGNEDVLTELLDPHVRLIVDGQHYHGRDLIVRFLVQWRIHRFHIHDVKSIGEYIRVDTHVDMEFDGKRIITQVELVIIKINGRWRYKHISIP”, the protease stability score amounted to 1.22.

“SEEEEHWHTLAHMIVHWWLTGDEDAFMELADPHVRFEQGDYESVGMENVRERWRMIKEEIRIHEIRVHDVRFINGVIEVDTRLIRTFNGVREEVDYRVEIVEYNGRVKRVKLEIR”: the protease stability score worked out at 1.33.

In turn, “SERRERLEVLSEILLRAWETGDEQELVENADPHTKLEVHQGDKEKHFHGWELILKHIYQIKNVKIHIEHVHIQGDKIENHVKLNINGKRIEVEITVWVVDGVIKHMEVRIK” registered a protease stability score of 1.93.

“TEEERDSKLAFQLLFKTLETGDEREHREFIDPNMRLHVGNYEFIGWERAVHIMRRIDHVQRIEIEDTYTIGNKVTIDGTDYIEVGDFTERIRSRWIILKVDGKWFIHHVELR” displayed a protease stability score of 0.679.

As to “DELEEEVMEFIRVFIHLLNTGDEDHLHELIDPNVRVEDENEEKHGRDTVEHMQRFFKNLRVTDLKVETFEVQGEFVHVHVDIEERVGDKHFHYKVLYIILKVDGRWLMHQVRFH”, the protease stability score was 2.12.

“HEHEKWMEELVRRLKHHLRTGDFETWKELADPNAKVQLVVGDKHVESIGREEMEKWFHDHMMRLGIERFEFNIQSIYVQGEKIHLLGRLHFNGQDERAEIILVVVNGRIKQIHFHLH” had a protease stability score of 1.2.

For “DEHTDAVETTWKRLLEDERTGNEDSLERLADPNYRVIINGKHYHGMEHSLHILSEWRITDHEIKDVEIQGEKAHIDGRFNGIIDGKHLNIHVLILIEKVDGRWIIKSVIFK”, the protease stability score was -0.096.

In the case of “SEEEKYFEHWLKILLQNMHTGNEENLKRLADPTYRLHIGDKNFIGREMFLDSMRRIDHFDDAKLKSIETYGDYVHAEIDHDGRVDGRKIRVNTILLTLKVDGRWIVHSFKIE”, the protease stability score turned out to be 0.827.

The sequence “HEEEKHREDFVRTWLHNLITGNFEHHRHLADPRVRIRIIVDGREQRIHGREEMIRWFREWMELFPGYYRHIEHSDIIGEYVHIEGQLEVNGKRLDVHIHLEVINGKIKHLTIDSR” had a protease stability score of 1.09.

“DKIKHLEDEIEKIFFETIETGDEHLFNQLVDPNVRVRIGDKHSVGREHVERVEREHREHMGVDHVEIRIHDSRTFNGVIHIEGKLHYHVNGRRHEHRIHIFLVVWDGVVRHLEIEIR”: the protease stability score is 0.305.

“SQEEKEIRDWLHILANARLTGDEDWLLKQADPNTRLEFNGVDLVGMEHNIKFLLHLERQHGMRLHNIHIHHVEVQGDKVESDIREDGEVNGRRMIFTSIIIVRKVNGRWILRSFHLH” registered a protease stability score of 1.21.

Sequence “SDEEESFFTMLELFVEYLHTGDEHEFKKLADPHVRSLYDGVELHGREWFIRKFREMRVKSLHFHHSDIHIINGRARARIDVRLDGEVNGVEDLTETEIRLEVHKVDGQWVFHSVEIHRK” returned a protease stability score of 1.33.

For the sequence “DHVEEVVRQMVSHILRDYITGDEKSYASLMDPNMRLHIGDKDSIGREEVLRLIREHTRHLGIKHFHLHDVRIRIQGEYVEIKIDVHLEFNGRKFRVIIHLEMHKVNGRWRLHEETIEIE”, the protease stability score came to 2.61.

On to “DEDEELARRHLKRLMEIWNTGDEDSHRHLADPHMRYIYNGKQTHGRQVSAKILLEMRIDHLEIKRMHLVDGKLEIDGRMEGEVNGRKDTVEVIIHNEKVNGRWIIRELQFG”, for which the protease stability score came out at 0.503.

For “DDHDKLMQDLTSMFVRDLITGDEKSMDELLDPDVKVDINGQETHGRDHFLEILNKNLKEWRVKDVKIEHVEWYGNKAHIRMEVIGNWNGKEHSLDFELHLLIVNGQFKEIRIKIR”, the protease stability score was found to be 1.5.

Consider “DEEDKHLIDMFRILMRTIETGNEEETRKLMDPHTIIEIGDKRSHGWESWKKFIEDLERRFDHVRIEIEDVKVQGDKAIVRTRLKLIVGDKHFEHDTRIFVVMVNGRIHTFRVEID”, for which the protease stability score amounted to 1.48.

“DELEKHLIHLAEIFIHNKLTGDEEELQRFMDPSVRTIVGEFHYHGRELVTEWLRREWEEMRIHEIHITHVRFQGDKVIIEGRLDIEVNGRRVDTHALIILVVVDGVMKSVKFEII” had a protease stability score of 1.23.

The sequence “DETKEAIDRLFEVIHRMMITGDEHEFMKLVDPNVKVIQGEKIYHGREVIVNMLREILKWAGVENIQSHLDPERVHIQGDKLLVRGRLELRIGDKSEERDVEFVVVKVDGRWLIRVWKIE” returned a protease stability score of 2.74.

Sequence “DEEEEFYEKMFRLWFELLLTGDESTLIKLLDPHVRIDFNGRELIGWFYLSHFMREFRHRFDHVEIIIRRVTVIDGVARSDLELRVNINGKDHTVKTEVHIRVVNGRMKSLEFHIK” registered a protease stability score of 0.965.

Turning to “DEEEKWFRESEKLIEELIHTGNEEEFRKLADPNMRLDFNGVEVHGRHHFFREIRHTSEKFGVDKVEVRLKDFKVFNGVAHYHGEIIFNGRTIEHEIIAEKVNGRWRLQFLIFR”, the protease stability score came to 1.61.

Turning to “SEERSRVLHYLSLFIHFLETGDWKALYELMDPDVRIHVGDFELHGRHIFVRHLRDLGIKHVEESIRVRRMILIDGVIHMDGHLERHLIVGDKRVDERHEVHEVILKVDGKWFVHSIHVK”, the protease stability score was determined as 1.14.

“DEEEKYSKEANTMSRHLVETGDEEIMSKLLDPDVRNDVDGVEFHGRELLSRILKEWRVRFESMHIEDEELQGDKVIVHGRELVRMIYDGKTFNTERKVIFIVVKINGRWFIKEVKVL” displayed a protease stability score of 0.751.

“DEESEKVEHFLEELFRAMETGDEDQFRKLMDPNVRASYGDKEVHGRNDILHWIREYRERVKNLKLEVHRVRVRIYNGRVEIEMDTILRINGKEHKVTLTFDVTKVNGRWFIEHVEVEVR” gave a protease stability score of 1.37.

“DEHEQEANEMMHRSLETLETGDERLLRHMADPNTKVQVGDKTWHGWHLLHEYRKEFRHARIIIREIDIQGEFVFLHGELDVNGKRLERTIIQLKVDGRWILHHMHLR”: the protease stability score was 0.435.

“SEEEHHAKKIAEDFLRWFITGDEDVLSHYADPDVRSRIGDKHHHGREELRRVMERLVRELRIKEIRIERYEVQGEKAILDSRVRGDVNGVEVEVRQIVIVVVIDGRLKSMELRLG” displayed a protease stability score of 0.516.

Take “DEREEESKRATEKVTRDIHTGDEDLHRHLLDPNAKLVFNGREFVGREEVEKILKWFLDRAGVDKINMTIHDVRVVDGRIKLDGRNNINGVEYTVIWISEKYNGRWFDRMIIFS”: the protease stability score worked out at 0.493.

The sequence “DEDKHQLDEATKVWLELFLTGNEEELLKLADPDVRIEVDGKHFHGREVMLKLMQEWKHRLGINVDELKRTEIEVIDGKAHVHLDGELYIDGKTFRLDIEVVYEKIDGRWRLKKVRFDIR” came in with a protease stability score of 2.15.

On to “SELNEISEEAVEWFRKVLLTGNEDLLLNLADPNVRYEVGDKRRVGRESMIEQIQHFLHEMGINHIHSVHIRDVRIQGDYIEVDSELETTVNGQKMYIHMFLRARKIDGKWILDRIYVH”, for which the protease stability score amounted to 1.02.

“DEEKHEALRLTREFLKLFFTGDWEKLVRLIDPDAKVEIGNFESVGRENIAHLLHLLNEEWRINDMRIHSFTVVNGQVRMDTEINGIYGDKNYETRTEIESVVIDGRLKHFSIRER” registered a protease stability score of 1.24.

As to “SEEHEDAHEMFELWSILLITGDERILHQLMDPDAKTTIDGQEFHGREKLIEVFREFLKRIDHIHEVEVTRMTFFDGRLHINLRVHVTINGVHRQFRVIIIIVKIDGRWVIQSQEIV”, the protease stability score turned out to be 1.63.

In turn, “DEEEDVMRKWLQLFLEAFETGDFRLIEEMFDPNTRLDVGDKEYHGRDEIARVIRTLWEEMRFEHFHIHRFDVFNGVANSDTHVVGKIGDKRRDVRVHIILIIVNGKLKKFRIETR” displayed a protease stability score of 1.71.

In turn, “DELHEFLERVAERLVRMEHTGNEEELKKLMDPHVRLVVGDKTSVGREELLRFLEELKRKIGWTNFTVHVRRIEVQGDFFNVDMELHVNGRSLHVLIRVQIINGKLESIHWIWI” came in with a protease stability score of 2.03.

Take “DEFHELARHALKLFKDTMDTGDEHTLEHLVDPNVRLLVDGQEIHGREAMEEFWRRVPNLRLYFHDVRVIGDKIIVDGKIEYGDKEIDSRIYLRKINGRWRFESVELR”: the protease stability score was 1.4.

In turn, “SDLERDAREAFEHYVNLMRTGNEHIVEHLIDPDVKIEIGDKQVVGREEVLKLFHHLVKHLRWHDTKLHHVHYQGDKMLLDMRLDGTIDGRRLDTRVIWFILKIDGVWFIKYQHYH” came in with a protease stability score of 1.81.

The sequence “DEWEELIEETAENIIRFIETGDEDFFRTFADPHMRFIYDQGDFRLIDHGREKVSEWLIRFLQEMRIIFIIEDVKVQGDKAHSQGRIHVNINGQRHEFNSRVIVVWVNGRLKYFRMSVR” registered a protease stability score of 1.43.

Sequence “SEDEEHARRFRELWLRIFHTGDWHEFHKLLDPNVRTQVGEFHDIGRESAAEHLELFLKQLGVDHTDITHVELIYIGDKVEVNILLRKEQGDKEYTFRIHIVVRKVNGQWLIKSIHITVE” yielded a protease stability score of 1.54.

As to “LEEEEEAKTMIEHHFDNFRTGDEDLIHKLADPHVRVLYNGKILHGREKLVEMIHKLVEKMGVDHLEYRHRDMKIWDGQVEVHGERIIRQGDKTYRFDVILFVLKVDGRWVIKEVRVQ”, the protease stability score was 1.47.

As for “DEATEKAKKAYELWMHSLKTGDEHHLKNLMDPDVRVIIDGVDMHGWEAAHFERRRFDHIHRVHVDHYEFQGNKSIWDGTVDGKVGDKEHRNRRIIIMNVVDGRYKSIHLHVE”, the protease stability score turned out to be 0.991.

For the sequence “SDEEERLRDFVRRYMESMRTGDEDTWRTMLDPNVQVTINGRWEIGRESAYEFLWTVFTHLGVDHLELDHFHLYGEKIELDLTAFVNGQTKKVRVELIVIDGKLKSEKIHDK”, the protease stability score is 1.12.

On to “TEMLEEALRFVEQLIKAILTGDESVFRNLVDPNAKNEIDGVEIHGWEFLNVFHKRYDHVTHLHFVLRSVRVYGDKLEMHGVVEIHGVIDGQERNFEVDTEIHVEKINGQWILRSLYVR”, for which the protease stability score amounted to 1.11.

In turn, “DEEKEYAIRILREFTKYWETGDFERMKELFDPNARLEIGDKRAVGRDKVLEVLLRELHELRFKHFELREEDVIGEKKHSELIVHMEIDGVWHRRNIRVEIVVIDGKIHRMRFEQH” displayed a protease stability score of 2.37.

For the sequence “DHREHRSHRIAEWILRNLVTGNEDEISKLLDPDARVIINGQEVIGREEINRMLRHVFNEIRIHDIEIRDLEIQGEFAFVDTRLDGEFDGRRIKQKSELRIVVINGRVRELEIRIH”, the protease stability score was 1.52.

On to “SEEEEHVWEWAKLVIDLWQTGNEEIFKELVDPNARSEFDGVTIHGMHNDLKRIIEELREIRVRIEIHSVRVIDGVLDVDVKLRLHIGDKQREIKIRLHIVVIDGKLKSVHIDKH”, for which the protease stability score was 1.9.

Turning to “SEHEEDARRIFERWINSVNTGDERLIYEMHDPHVRVEINGREFHGREEIHKLAHRIDHFKIHRIIERDVRLVNGRVELHGEIDYRFFFDGKELSSIHSLHMTLTKVNGRWSIEEERVK”, the protease stability score is 0.39.

Consider “DEDTRDAEHISRMMLHAFITGDERLIEKNADPDTRIDVNGVDYHGREEMVKLFKRWLDELGVNHMEIKETTTHVYDGRVEVVLHLHVDYNGRRHHLIIIIINDKFDGQWRIRSLEFEER”, for which the protease stability score is 1.37.

In turn, “DEHDKETKEMLERFLEATETGNEKHSEELFDPRTRMEFDGVEIHGRETITKILTELWERADHIQFVLHDLRLVDGRVELDMRIRLHYDGQEYRRRSKVLLWKIDGRWVIRSERYE” came in with a protease stability score of 1.99.

“SEDEEMTKKMVEELNHNLLTGDEERLKKQADPNAKVHQGEYNLVGMDQFVRLIKEWRIHHVDMRDIRIFDGVAFIDFEEDIEIDGVRIQTRTHIIILKVNGRWRFKQWEMR”: the protease stability score was 0.862.
